Measurements from US20240270821A1, “GIP/GLP1/GCG TRI-RECEPTOR AGONISTS AND USES THEREOF” (priority 2023, published 2024).

T1: human GIP receptor (human) (UniProt P48546)
T1 sequence (looked up): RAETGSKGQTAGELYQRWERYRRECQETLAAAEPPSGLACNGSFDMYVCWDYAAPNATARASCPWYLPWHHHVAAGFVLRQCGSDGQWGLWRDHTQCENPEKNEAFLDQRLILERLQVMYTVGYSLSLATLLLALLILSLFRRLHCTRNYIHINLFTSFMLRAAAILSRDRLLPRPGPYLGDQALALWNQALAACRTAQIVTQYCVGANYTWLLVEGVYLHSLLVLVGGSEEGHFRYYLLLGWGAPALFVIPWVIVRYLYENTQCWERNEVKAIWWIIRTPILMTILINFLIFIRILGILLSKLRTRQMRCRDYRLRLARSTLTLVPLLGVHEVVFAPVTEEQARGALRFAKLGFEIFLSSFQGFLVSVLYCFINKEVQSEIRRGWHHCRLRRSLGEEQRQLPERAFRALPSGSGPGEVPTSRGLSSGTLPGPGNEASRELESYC


Columns and labels:
Assay in all cases: cell-based or functional assay
[1] = target: hGLP-1R (Homo sapiens, UniProt P43220)
Chain of hGLP-1R (P43220 24-463): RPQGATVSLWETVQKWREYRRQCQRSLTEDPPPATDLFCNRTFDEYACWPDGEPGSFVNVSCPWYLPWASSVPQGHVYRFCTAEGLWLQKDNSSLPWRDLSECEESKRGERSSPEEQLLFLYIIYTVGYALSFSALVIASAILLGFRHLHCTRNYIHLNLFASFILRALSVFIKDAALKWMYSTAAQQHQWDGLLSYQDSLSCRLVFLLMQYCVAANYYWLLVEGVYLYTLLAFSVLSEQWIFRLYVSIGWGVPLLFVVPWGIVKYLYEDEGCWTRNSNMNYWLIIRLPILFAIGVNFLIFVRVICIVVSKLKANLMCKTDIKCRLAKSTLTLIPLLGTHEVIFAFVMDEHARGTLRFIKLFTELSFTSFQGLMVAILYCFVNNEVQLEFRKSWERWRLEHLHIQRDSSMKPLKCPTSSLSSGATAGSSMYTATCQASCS

[2] = target: T1, human GIP receptor (human)
[3] = target: human glucagon receptor (human) (UniProt P47871)
Chain of human glucagon receptor (human) (P47871 26-477): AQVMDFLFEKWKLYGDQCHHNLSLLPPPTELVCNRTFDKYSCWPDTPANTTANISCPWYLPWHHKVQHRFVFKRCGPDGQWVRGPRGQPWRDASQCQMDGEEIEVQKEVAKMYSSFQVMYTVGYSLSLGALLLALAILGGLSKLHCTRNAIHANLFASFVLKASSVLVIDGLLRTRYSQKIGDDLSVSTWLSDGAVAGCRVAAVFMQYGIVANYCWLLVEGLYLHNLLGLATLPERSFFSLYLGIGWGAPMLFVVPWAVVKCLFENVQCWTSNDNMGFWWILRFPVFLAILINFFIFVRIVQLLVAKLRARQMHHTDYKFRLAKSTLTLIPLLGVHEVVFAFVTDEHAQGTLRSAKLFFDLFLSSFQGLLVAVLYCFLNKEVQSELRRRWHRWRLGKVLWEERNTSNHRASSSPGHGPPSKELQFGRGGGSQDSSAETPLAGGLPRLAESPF

Row | Binder | Relative cAMP EC50 [1] | cAMP Rel EC50 (1% HSA) [1] | Relative cAMP EC50 [2] | cAMP Rel EC50 (1% HSA) [2] | Relative cAMP EC50 [3] | cAMP Rel EC50 (1% HSA) [3] | cAMP Rel EC50, nM (1% HSA) [1] | cAMP Rel EC50, nM (1% HSA) [2] | cAMP Rel EC50, nM (1% HSA) [3]
1 | YXQGTXTSDXXIXLDXKAAXEFIEXLIEGGPSSGEPPPSGSE (synthetic construct; SITE 2: note = 2-Aminoisobutyric Acid; SITE 6: note = alpha-methyl-2-fluoro-L-phenylalanine; SITE 10: note = 3-(4-Pyridyl)-L-alanine; SITE 11: note = alpha-methyl-L-serine; SITE 13: note = alpha-methyl-leucine; SITE 16: note = L-ornithine; SITE 17: note = Lysine is chemically mo) [Example 720] | 0.245 nM | 28.3 nM | 0.0103 nM | 1.02 nM | 1.78 nM | 239 nM |  |  | 
2 | YXQGTXTSDXXIXLDXKAAXEFIEXLIEGGPSSGAPPPSGX (C-terminal γGlu, amide; synthetic construct; SITE 2: note = 2-Aminoisobutyric Acid; SITE 6: note = alpha-methyl-2-fluoro-L-phenylalanine; SITE 10: note = 3-(4-Pyridyl)-L-alanine; SITE 11: note = alpha-methyl-L-serine; SITE 13: note = alpha-methyl-leucine; SITE 16: note = L-ornithine; SITE 17: note = Lysine is chemically mo) [Example 722] | 0.252 nM | 27.2 nM | 0.01 nM | 0.953 nM | 1.71 nM | 170 nM |  |  | 
3 | YXQGTXTSDXXIXLDXKAAXEFIEXLIEGGPSSGAPPPSGTGX (synthetic construct; SITE 2: note = 2-Aminoisobutyric Acid; SITE 6: note = alpha-methyl-2-fluoro-L-phenylalanine; SITE 10: note = 3-(4-Pyridyl)-L-alanine; SITE 11: note = alpha-methyl-L-serine; SITE 13: note = alpha-methyl-leucine; SITE 16: note = L-ornithine; SITE 17: note = Lysine is chemically mo) [Example 724] | 0.256 nM | 26.4 nM | 0.0102 nM | 1.06 nM | 1.74 nM | 209 nM |  |  | 
4 | YXQGTXTSDXXIXLDXKAAXEFIEXLIEGGPSSGAPPPSGTEE (synthetic construct; SITE 2: note = 2-Aminoisobutyric Acid; SITE 6: note = alpha-methyl-2-fluoro-L-phenylalanine; SITE 10: note = 3-(4-Pyridyl)-L-alanine; SITE 11: note = alpha-methyl-L-serine; SITE 13: note = alpha-methyl-leucine; SITE 16: note = L-ornithine; SITE 17: note = Lysine is chemically mo) [Example 725] | 0.258 nM | 29.1 nM | 0.0126 nM | 1.39 nM | 1.49 nM | 244 nM |  |  | 
5 | YXQGTXTSDXXIXLDXKAAXEFIEXLIEGGPSSGAPPPSGTEX (synthetic construct; SITE 2: note = 2-Aminoisobutyric Acid; SITE 6: note = alpha-methyl-2-fluoro-L-phenylalanine; SITE 10: note = 3-(4-Pyridyl)-L-alanine; SITE 11: note = alpha-methyl-L-serine; SITE 13: note = alpha-methyl-leucine; SITE 16: note = L-ornithine; SITE 17: note = Lysine is chemically mo) [Example 726] | 0.247 nM | 33.3 nM | 0.013 nM | 1.22 nM | 1.71 nM | 226 nM |  |  | 
6 | YXQGTXTSDXXIXLDXKAAXEFIEXLIEGGPSSGAPPPSGGGE (synthetic construct; SITE 2: note = 2-Aminoisobutyric Acid; SITE 6: note = alpha-methyl-2-fluoro-L-phenylalanine; SITE 10: note = 3-(4-Pyridyl)-L-alanine; SITE 11: note = alpha-methyl-L-serine; SITE 13: note = alpha-methyl-leucine; SITE 16: note = L-ornithine; SITE 17: note = Lysine is chemically mo) [Example 745] | 0.212 nM | 29 nM | 0.012 nM | 1.36 nM | 1.86 nM | 266 nM |  |  | 
7 | YXQGTXTSDXXIXLDXKAAXEFIEXLIEGGPSSGEPPPSGGGE (synthetic construct; SITE 2: note = 2-Aminoisobutyric Acid; SITE 6: note = alpha-methyl-2-fluoro-L-phenylalanine; SITE 10: note = 3-(4-Pyridyl)-L-alanine; SITE 11: note = alpha-methyl-L-serine; SITE 13: note = alpha-methyl-leucine; SITE 16: note = L-ornithine; SITE 17: note = Lysine is chemically mo) [Example 746] | 0.261 nM | 38.6 nM | 0.0119 nM | 1.44 nM | 1.62 nM | 255 nM |  |  | 
8 | YXQGTXTSDXXIXLDXKAAXEFIEXLIEGGPSSGAPPPSGGGE (synthetic construct; SITE 2: note = 2-Aminoisobutyric Acid; SITE 6: note = alpha-methyl-2-fluoro-L-phenylalanine; SITE 10: note = 3-(4-Pyridyl)-L-alanine; SITE 11: note = alpha-methyl-L-serine; SITE 13: note = alpha-methyl-leucine; SITE 16: note = L-ornithine; SITE 17: note = Lysine is chemically mo) [Example 747] | 0.229 nM |  | 0.00955 nM |  | 1.71 nM |  | 20.3 nM | 0.651 nM | 169 nM
9 | YXQGTXTSDXXIXLDXKAAXEFIEXLIEGGPSSGEPPPSGGGE (synthetic construct; SITE 2: note = 2-Aminoisobutyric Acid; SITE 6: note = alpha-methyl-2-fluoro-L-phenylalanine; SITE 10: note = 3-(4-Pyridyl)-L-alanine; SITE 11: note = alpha-methyl-L-serine; SITE 13: note = alpha-methyl-leucine; SITE 16: note = L-ornithine; SITE 17: note = Lysine is chemically mo) [Example 748] | 0.258 nM |  | 0.0105 nM |  | 1.42 nM |  | 22.9 nM | 0.865 nM | 156 nM
10 | YXQGTXTSDXXIXLDXKAQXEFIEXLVEGGPSSGAPPPSGE (synthetic construct; SITE 2: note = 2-Aminoisobutyric Acid; SITE 6: note = alpha-methyl-2-fluoro-L-phenylalanine; SITE 10: note = 3-(4-Pyridyl)-L-alanine; SITE 11: note = alpha-methyl-L-serine; SITE 13: note = alpha-methyl-leucine; SITE 16: note = L-ornithine; SITE 17: note = Lysine is chemically mo) [Example 749] | 0.293 nM |  | 0.00718 nM |  | 2.21 nM |  | 33.9 nM | 1.47 nM | 28 nM
11 | YXQGTXTSDXXIXLDXKAQXEFIEXLVEGGPSSGEPPPSGE (synthetic construct; SITE 2: note = 2-Aminoisobutyric Acid; SITE 6: note = alpha-methyl-2-fluoro-L-phenylalanine; SITE 10: note = 3-(4-Pyridyl)-L-alanine; SITE 11: note = alpha-methyl-L-serine; SITE 13: note = alpha-methyl-leucine; SITE 16: note = L-ornithine; SITE 17: note = Lysine is chemically mo) [Example 750] | 0.302 nM |  | 0.00784 nM |  | 2 nM |  | 39.1 nM | 1.34 nM | 205 nM
